Among the data in publication PMC7083227 are Kd and ratio to parent values, retold here.

For assay [1], the target named is MOP Vγ9Vδ2 TCR (soluble, biotinylated) (human). The assay can be described thus: SPR; BIAcore3000; biotinylated TCRs (2000-3000 RU) captured on streptavidin-coated CM5 chips; BTN IgV domain injected as analyte, 1-200 μM; HBS-EP buffer; equilibrium affinity measurements.
Assay [2] concerns the target Vγ9Vδ1 TCR (soluble, biotinylated) (human). The assay is described as above.
Assay [3] deals with MOP Vγ9Vδ2 TCR (soluble, biotinylated) (human). Described as above. This is another data set of the same source.
The target of assay [4] is Vγ9Vδ1 TCR (soluble, biotinylated) (human). The assay is described as above. This is another data set of the same source.
Assay [5] has as its target Vγ9Vδ2 TCR (soluble, biotinylated; clone not stated for this experiment). The assay can be described thus: SPR. As to conditions: parent: est. 1.0; read off a plot.
The target in assay [6] is Vγ9Vδ2 TCR (soluble, biotinylated; clone not stated for this experiment) (human). The assay can be described thus: SPR; BIAcore3000; biotinylated TCRs (2000-3000 RU) captured on streptavidin-coated CM5 chips; BTN IgV domain injected as analyte, 1-200 μM; HBS-EP buffer; equilibrium affinity measurements. (In SPR one partner is held on a chip, and binding of the other changes the refractive index at the surface.)

The target is the same in assay [7]. Described as above. This is another data set of the same source.
The target of assay [8] is BTN2A1 peptide on (human). The assay is described as follows: SPR, equilibrium affinity and Scatchard analysis; representative experiment of Figure 3B; soluble, other.
The target of assay [9] is BTN2A1 peptide on (human). The assay can be described thus: SPR, equilibrium affinity; biotinylated TCR captured on a streptavidin chip, BTN2A1 IgV as analyte; soluble, other.

Like-named read-outs stand apart in the source and are kept apart here.

“BTN2A1 IgV (from UniProt Q7KYR7 27-142) (domain or fragment)”: the Kd (usually the concentration at which binding is half-saturated) in assay [1] was 49.9 µM; in [2], 46.6 µM; in assay [3], 48.4 µM; in assay [4], 47.9 µM.

For the substance BTN2A1 IgV (from UniProt Q7KYR7) Y133A, the ratio to parent in assay [5] is 0.8.

For “BTN2A1 IgV K79A (from UniProt Q7KYR7 27-142) (domain or fragment)”, the dissociation constant Kd in assay [6] came to 100 µM.

As for “BTN2A1 IgV S72A (from UniProt Q7KYR7 27-142) (domain or fragment)”, the figures for the Kd in assay [7] and in assay [6] were 10 to 15 µM and 11 to 15 µM, respectively.

On to Vγ9Vδ2 MOP TCR, for which the Kd in assay [8] was found to be 48.4 µM; in [9], 49.9 µM.
